Biological target: the molecule itself
Assay: crystal structure; hanging-drop vapor diffusion at 20 °C; 10 mg/mL Pvg1p in 100 mM MOPS-NaOH pH 7.4 with 20 mM PEP and 5 mM pNP-β-Gal; well solution with 10 mM zinc chloride; 2.46 Å; dimer in the asymmetric unit

B1: fission yeast pyruvyltransferase Pvg1p (enzyme, Schizosaccharomyces pombe, UniProt Q9UT27 32-401, looked up)
chain: DLQTLKNPSSLTSPSSSTSVDKKKPLFTKSPRNSASCESTITLQSNLLFTYYKHYFAGIKKVALIGFPDHPNKGDSAIYVAEKKLLDALNIEVVYITAQEADYSASELKSIISDIPRDEFALAFHGGGNFGDLYPDHQHLRELVVRDFPSFTTISFPQSVWYNEQQLLEQASILYAENPNITLVTRDRQSYGFAVDAFGKHNEVLLTPDIVFFMGPIPEIREATPITHDVLILARLDHEGGQQHGAEDYYRDTLNAANLTYSVEDWLLWDPPVAQNPDSSFDDRGQARYEAGAEFLASARVVITDRLHAHILSTLMGIPHIVVENSQMGKITNYHNTWLHGCTLDGVSVVVDSVDKALSLLLEWNEAGYF
notes: Pvg1p, pyruvyltransferase of Schizosaccharomyces pombe; the D32-F401 portion (without the predicted N-terminal transmembrane region) was used for crystallization; disulfide bond C68-C373 seen in the crystal structure; Expression plasmid pET32b-pvg1; also called recombinant Pvg1p
B1 was tested, and the “stoichiometry N” value was 2.

Source: paper PMC4872226, “A rationally engineered yeast pyruvyltransferase Pvg1p introduces sialylation-like properties in neo-human-type complex oligosaccharide” (Scientific Reports, 2016)
